From US6610541B2, “Recombinant, active caspases and uses thereof” (Thomas Jefferson University, priority 1998, dated 2003)
One block for each molecule: values may come before it. Peptide text beside a SMILES is read from it. * marks the point of attachment. Cbz = O=C(OCc1ccccc1)*; CH2F = FC*

How the values were obtained:
rev-caspase-3 = biological target: T1, rev-caspase-3 (Homo sapiens, UniProt P42574); assay: Autocatalytic processing of in vitro translated rev-caspase-3 (SDS-PAGE/autoradiography); assay type: biochemical; parameters: T7-tag (15 residues) (N); made in house; host or cells: in vitro translation in rabbit reticulocyte lysate (TNT Kit, Promega)
T1 sequence (P42574 with tags, fused parts or gaps): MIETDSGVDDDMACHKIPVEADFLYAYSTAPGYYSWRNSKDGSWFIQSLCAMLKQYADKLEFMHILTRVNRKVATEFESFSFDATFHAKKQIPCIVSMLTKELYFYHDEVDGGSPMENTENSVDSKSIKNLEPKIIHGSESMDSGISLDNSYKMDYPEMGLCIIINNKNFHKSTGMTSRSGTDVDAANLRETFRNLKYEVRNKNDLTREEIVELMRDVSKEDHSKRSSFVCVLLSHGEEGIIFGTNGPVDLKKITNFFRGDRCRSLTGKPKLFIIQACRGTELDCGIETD
Description: (§1) FIGS. 2B and C are scanned images of autoradiograms representing SDS-PAGE analysis of the autoprocessing of rev-caspase-3 and -6, respectively in the presence of varying levels of selected caspase inhibitors. Rev-caspase-3 (FIG. 2B) or rev-caspase-6 (FIG. 2C) were in vitro translated in the presence of increasing concentrations of DEVD-CHO […]; (SEQ ID NO:52), or zVAD-fmk (0-5 μM). The translation products were then analyzed as in FIG. 2A. WT, wild-type.
(§2) ^35S-labeled caspases (wild-type and rev-caspases) were obtained by in vitro translation in the presence of ^35S-methionine using a coupled transcription/translation system in rabbit reticulocyte lysate using TNT Kit (Promega) according to the manufacturer's recommendations.
(§3) To test the effect of selected caspase inhibitors on the autocatalytic activity of rev-caspase-3 and 6, the rev-caspases were translated as in Example 3, but in the presence of varying amounts of inhibitors.

rev-caspase-6 = biological target: T2, rev-caspase-6 (Homo sapiens, UniProt P55212); assay: Autocatalytic processing of in vitro translated rev-caspase-6 (SDS-PAGE/autoradiography); assay type: biochemical; parameters: T7-tag (15 residues) (N); made in house; host or cells: in vitro translation in rabbit reticulocyte lysate (TNT Kit, Promega); conditions: at the concentration used (zVAD-fmk 0-5 μM); p35 data not shown
T2 sequence (P55212 with tags, fused parts or gaps): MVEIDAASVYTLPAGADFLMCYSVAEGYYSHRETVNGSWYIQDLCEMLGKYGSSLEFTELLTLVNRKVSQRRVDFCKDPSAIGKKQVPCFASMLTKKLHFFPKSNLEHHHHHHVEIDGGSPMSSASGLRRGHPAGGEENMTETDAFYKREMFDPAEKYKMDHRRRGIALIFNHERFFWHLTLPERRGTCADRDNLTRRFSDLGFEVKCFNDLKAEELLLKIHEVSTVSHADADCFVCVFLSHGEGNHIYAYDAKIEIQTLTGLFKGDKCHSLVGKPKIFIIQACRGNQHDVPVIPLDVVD
Description: as §1, §2, §3

human PARP = assay: Cleavage of PARP by bacterially expressed caspases (Western blot); assay type: biochemical; conditions: BL-21 bacterial extracts, 2 h at 37° C.
Description: (§4) FIGS. 3A and B are scanned images representing the SDS-PAGE analysis of the ability of rev-caspase-3 (imaged by western blot) and -6 (imaged by autoradiogram) to cleave PARP and lamin, respectively. In FIG. 3A purified human PARP was incubated with buffer (lane 1) or BL-21 bacterial extracts prepared from bacteria transformed with caspase-3 (lane 2), rev-caspase-3 (lane 3), caspase-6 (lane 4), rev-caspase-6 (lane 5) constructs or empty pET28a vector (lane 6) for 2 h at 37° C. The reaction products were then analyzed by SDS-PAGE and Western blotting with anti-human PARP antibody. In FIG. 3B a cDNA encoding the C-terminus of lamin A (amino acids) which contain the caspase-6 cleavage site (VEIDA); (SEQ ID NO:116), was amplified by PCR and in vitro translated in the presence of ^35S-methionine. The labeled product was incubated with buffer (lane 1) or the BL-21 bacterial extracts listed above for 2 h at 37° C., and then analyzed by SDS-PAGE and autoradiography. The cleavage products are indicated to the right.
(§5) At limited caspase concentrations, poly(ADP) ribose polymerase (PARP) is specifically cleaved by caspase-3 and 7 but not other caspases. Similarly, lamin is specifically cleaved by caspase-6 but not other caspases. […]

MCF-7 cells = assay: Induction of apoptosis in transfected MCF-7 cells (round blue apoptotic cells); assay type: cell-based, human
Description: FIGS. 4A and B are bar diagrams representing the ability of rev-caspase-3 and -6 to induce apoptosis in MCF-7 cells. MCF-7 cells were transiently transfected with either rev-caspase-3 (FIG. 4A), or rev-caspase-6 (FIG. 4B) expression constructs in combination with 4-fold of CrmA, p35 or Bcl-2 expression constructs, or 20 μM zVAD-fmk. Cells transfected with an empty vector or the wild-type caspase-3 or -6 were used as controls.
To express the rev-caspases in mammalian cells and assay their apoptotic activity, they were amplified with the T7-tag primer and the LS-reverse primers using the pET28a constructs as templates, and subcloned into the mammalian double expression vector pRSC-LacZ (MacFarlane et al., J. Biol. Chem., 272: 25417-25420, 1997; Tsang et al., Bio/Technology, 22: 68, 1997). This vector allows the expression of lacZ under the Rous Sarcoma virus promoter, and the test cDNA under the CMV promoter. To assay for apoptosis, MCF-7 or 293 cells were transfected, using the method commercially available as the Lipofect Amine method (Life Technologies, Inc.), with the pRSC-LacZ constructs in the presence or absence of different apoptosis-inhibitors. 30 h after transfection cells were stained with β-galactosidase and examined for morphological signs of apoptosis. The percentage of round blue apoptotic cells (mean±SD) were represented as a function of total blue cells under each condition (n≧3).
To determine the apoptotic activity of rev-caspase-3 and 6 in vivo, the rev-caspases were expressed in human MCF-7 cells, transfected as explained above in Example 2.

lamin A = assay: Cleavage of in vitro translated lamin A C-terminus by bacterially expressed caspases; assay type: biochemical; conditions: BL-21 bacterial extracts, 2 h at 37° C.
Description: as §4, §5

[1] = biological target: T3, uncleavable rev-caspase-3 (Homo sapiens, UniProt P42574, D28A/D9A); assay: In vitro translation of uncleavable rev-caspase-3: His6-T7-tag processing; assay type: biochemical
T3 construct: uncleavable rev-caspase-3 (B); made in house; host or cells: in vitro translation in rabbit reticulocyte lysate (TNT Kit, Promega)
T3 sequence (P42574 with tags, fused parts or gaps D9A/D28A): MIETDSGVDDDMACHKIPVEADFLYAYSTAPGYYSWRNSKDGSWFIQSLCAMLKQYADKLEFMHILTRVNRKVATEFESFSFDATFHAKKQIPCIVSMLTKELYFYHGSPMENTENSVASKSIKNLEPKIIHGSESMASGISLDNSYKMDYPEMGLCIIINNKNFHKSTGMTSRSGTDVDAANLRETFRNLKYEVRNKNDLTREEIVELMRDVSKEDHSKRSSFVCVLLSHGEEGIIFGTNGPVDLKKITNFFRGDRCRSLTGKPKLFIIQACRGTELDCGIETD
Text: FIG. 5A is a scanned image of an autoradiogram representing SDS-PAGE analysis of the enzymatic activity of uncleavable rev-caspase-3. Uncleavable rev-caspase-3 was in vitro translated in the absence or the presence of increasing concentrations of DEVD-CHO (SEQ ID NO:52),. The translation product contains a cleavable 35 residues-long His6-T7-tag at its N-terminus. The active site mutant rev-caspase-3 (Rev C/A) was used as a control. The p32 cleavage product without the His6-T7-tag is indicated to the right.
^35S-labeled caspases (wild-type and rev-caspases) were obtained by in vitro translation in the presence of ^35S-methionine using a coupled transcription/translation system in rabbit reticulocyte lysate using TNT Kit (Promega) according to the manufacturer's recommendations. […] Because the in vitro translated products are present at very low concentration in the reaction mixture, the observed cleavage must be attributed to an intramolecular processing within the caspase heterotetramer.
However, to follow the activity of this molecule a cleavable 35 residue long His6-T7-tag N-terminal to the IETD (SEQ ID NO:53) site was introduced (see FIG. 1B). […] Nevertheless, the translated molecule was active as evident from its ability to cleave its T7-tag to form the p32 species (FIG. 5). In the presence of 400 nM DEVD-CHO (SEQ ID NO:52), processing of the T7-tag was inhibited and only the full length p34 species can be seen. […] Thus by mimicking the mature caspase structure, it is possible to design a contiguous active caspase molecules.

inhibitory effect on rev-caspase-3 autocatalytic activity compared with rev-caspase-6 (rev-caspase-3; at the concentration used (zVAD-fmk 0-5 μM), p35 data not shown): nearly an equal inhibitory effect
amount required relative to DEVD-CHO to obtain complete inhibition of caspase-3 activity (rev-caspase-3; in vitro translation of rev-caspase-3): ~10 fold
inhibitory effect on rev-caspase-6 autocatalytic activity compared with rev-caspase-3 (rev-caspase-6): nearly an equal inhibitory effect
Molecule: COC(=O)C[C@H](NC(=O)[C@H](C)NC(=O)[C@@H](NC(=O)OCc1ccccc1)C(C)C)C(=O)CF [z-VAD-fmk] (Cbz-Val-Ala-Asp(OMe)-CH2F)

B1: wild-type caspase-3: wild-type human caspase-3 (SEQ ID NO:12) (protein)
chain: MENTENSVDSKSIKNLEPKIIHGSESMDSGISLDNSYKMDYPEMGLCIIINNKNFHKSTGMTSRSGTDVDAANLRETFRNLKYEVRNKNDLTREEIVELMRDVSKEDHSKRSSFVCVLLSHGEEGIIFGTNGPVDLKKITNFFRGDRCRSLTGKPKLFIIQACRGTELDCGIETDSGVDDDMACHKIPVDADFLYAYSTAPGYYSWRNSKDGSWFIQSLCAMLKQYADKLEFMHILTRVNRKVATEFESFSFDATFHAKKQIPCIVSMLTKELYFYH
cleavage of PARP (human PARP): efficiently cleaved PARP

autocatalytic processing in the in vitro translation reaction (rev-caspase-3 constructs) (rev-caspase-3; rabbit reticulocyte lysate, 35S-methionine): able to undergo autocatalytic processing
B2: rev-caspase-3: contiguous caspase-3 with small subunit fused N-terminal to large subunit, DEVDG cleavage site between them (SEQ ID NO:34) (protein)
chain: MIETDSGVDDDMACHKIPVEADFLYAYSTAPGYYSWRNSKDGSWFIQSLCAMLKQYADKLEFMHILTRVNRKVATEFESFSFDATFHAKKQIPCIVSMLTKELYFYHDEVDGGSPMENTENSVDSKSIKNLEPKIIHGSESMDSGISLDNSYKMDYPEMGLCIIINNKNFHKSTGMTSRSGTDVDAANLRETFRNLKYEVRNKNDLTREEIVELMRDVSKEDHSKRSSFVCVLLSHGEEGIIFGTNGPVDLKKITNFFRGDRCRSLTGKPKLFIIQACRGTELDCGIETD
modifications: OTHER INFORMATION: Rev-Caspase-3 contructed fro m human caspase -3
apoptosis in transfected cells (MCF-7 cells; 30 h after transfection): ~90%
cleavage of PARP (human PARP): efficiently cleaved PARP

B3: wild-type caspase-6: wild-type human caspase-6 (SEQ ID NO:21) (protein)
chain: MSSASGLRRGHPAGGEENMTETDAFYKREMFDPAEKYKMDHRRRGIALIFNHERFFWHLTLPERRGTCADRDNLTRRFSDLGFEVKCFNDLKAEELLLKIHEVSTVSHADADCFVCVFLSHGEGNHIYAYDAKIEIQTLTGLFKGDKCHSLVGKPKIFIIQACRGNQHDVPVIPLDVVDNQTEKLDTNITEVDAASVYTLPAGADFLMCYSVAEGYYSHRETVNGSWYIQDLCEMLGKYGSSLEFTELLTLVNRKVSQRRVDFCKDPSAIGKKQVPCFASMLTKKLHFFPKSN
cleavage of lamin (lamin A): efficiently cleaved lamin

activity of translated molecule (cleaves its T7-tag to form the p32 species) [1]: active
B4: Noncleavable Rev-caspase-3: rev-caspase-3 with DEVD site removed and Asp9 and 28 mutated (SEQ ID NO:35) (protein)
chain: MIETDSGVDDDMACHKIPVEADFLYAYSTAPGYYSWRNSKDGSWFIQSLCAMLKQYADKLEFMHILTRVNRKVATEFESFSFDATFHAKKQIPCIVSMLTKELYFYHGSPMENTENSVASKSIKNLEPKIIHGSESMASGISLDNSYKMDYPEMGLCIIINNKNFHKSTGMTSRSGTDVDAANLRETFRNLKYEVRNKNDLTREEIVELMRDVSKEDHSKRSSFVCVLLSHGEEGIIFGTNGPVDLKKITNFFRGDRCRSLTGKPKLFIIQACRGTELDCGIETD
modifications: OTHER INFORMATION: Uncleavable Rev-Caspase-3 co ntructed from human caspase -3
induction of apoptosis on expression in cells (MCF-7 cells): potently induced apoptosis
cleavage between the two subunits upon in vitro translation [1]: no evidence of cleavage between the two subunits
